A short description of series [1]: folding stability dG unfold from trypsin proteolysis; higher = more stable. The method, boiled down:
(§1)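 Unfolding free energy was derived, per protease or combined, by relating Bayesian-fitted K50 values from sequencing counts to a sequence-predicted unfolded-state K50 and a shared folded-state K50. The underlying digests exposed cysteine-free mini-proteins under 80 residues, in a PA-tagged cDNA display construct, to trypsin and chymotrypsin at 11 threefold-diluted concentrations and to a no-protease condition. A filter kept only designs with AlphaFold2 dimer inter-PAE above 15.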

A short description of series [2]: folding stability dG unfold from chymotrypsin proteolysis; higher = more stable. The method, boiled down: as §1
The nature of series [3]: folding stability dG unfold (combined trypsin and chymotrypsin); higher = more stable. The method, boiled down:
as §1

± gives the half width of the 95% confidence interval.

“SAGGMVTVDTDPTEDGTLRVTVTVPRPDGPALTLTLDFPPEAGSLAVVLARADEALAAEMARRGLALSAGGS [r8_464_JUSTAS]”: the “folding stability dG unfold” value in series [1] is -0.0072 ± 0.27 kcal/mol; in series [2], 1.95 ± 0.14 kcal/mol; in series [3] it was 1.44 ± 0.22 kcal/mol.
Taken in the same sequence, the figures for “SAGGMVVTEEGDKTYITVRVPAPPGLPPEAVAAEIRERYGLSDLEVLEVEALPDGTLVVRLRDSTPASAGGS [r16_234_JUSTAS]” were 2.55 ± 0.074 kcal/mol, 2.554 ± 0.021 kcal/mol and 2.55 ± 0.044 kcal/mol.
The matching figures for “SAGGMVVVAVEVDPVTKTATIVYAAPVPNLGGYVPIPAAAVAKRLTEELGLPDVKEVTVAQAAGDVPISAGG [r13_327_TrMRF]”: 0.428 ± 0.057 kcal/mol, 0.607 ± 0.1 kcal/mol and 0.578 ± 0.12 kcal/mol.
Taken in the same sequence, the figures for “SAGGMYLYKINIKNENEEFFLPILAPEEDEEKVEELAKEISIKLGVKPENIKIEKIEKILGPNGIPVSAGGS [r16_650_TrMRF]” were 1.74 ± 0.058 kcal/mol, 2.08 ± 0.037 kcal/mol and 1.99 ± 0.1 kcal/mol.
As to “SAGGNIKIEVYRSPDYYMIRIKLDGKPYEIPIDPGNTEEEAAEQALDNLQEKFPDKPIKIKDVEIYPYSAGG [r13_884_TrROS]”, the figures for the “folding stability dG unfold” value in series [1], in series [2] and in series [3] were 0.473 ± 0.22 kcal/mol, 0.513 ± 0.42 kcal/mol and 0.566 ± 0.28 kcal/mol, respectively.
For the sequence “SAGGNIKVRREPRPNGQYRVKITIPDPDGKPIEIEYRMPPGMDSPEQAQKEAIEVVKEFAKKHNIKISAGGS [r8_464_TrROS]”, the “folding stability dG unfold” value in series [1] stood at 0.423 ± 0.17 kcal/mol; in series [2], 0.733 ± 0.17 kcal/mol; in series [3], 0.605 ± 0.21 kcal/mol.
Taken in the same sequence, the figures for “SAGGNKGKTIQINFMIDPEDPEMMIEKISKWLQAKGFKIESIEPRPVGNRWMYSATFRVPNGREITIWSAGG [r13_421_TrROS]” were 1.76 ± 0.039 kcal/mol, 1.61 ± 0.19 kcal/mol and 1.77 ± 0.17 kcal/mol.
Consider “SAGGNLDKEFVRDIIENFGFTRIEVEEHPNRKVVTFRFENMDVVIRPDGQIEIENPGGEPVFQIEVPSAGGS [r8_147_TrROS]”, for which the figures for the “folding stability dG unfold” value in series [1], in series [2] and in series [3] were 1.31 ± 0.031 kcal/mol, 1.63 ± 0.11 kcal/mol and 1.53 ± 0.21 kcal/mol, respectively.
The matching figures for “SAGGNNIYVHIQFKPKEQKMERTPDNGKWDMEYKWEIDITIYYPKGMSPEQAERLVNELREIFPGIKSAGGS [r8_306_TrROS]”: 1.12 ± 0.072 kcal/mol, 2.54 ± 0.047 kcal/mol and 1.99 ± 0.12 kcal/mol.
Taken in the same sequence, the figures for “SAGGNPSASPVVTETELPDGSRVTTTTYPSGTTTRTVTDLVTGKKTLVTTTTTPGTGATTTTTTPVPPSAGG [r13_822_JUSTAS]” were 0.151 ± 0.019 kcal/mol, 1.51 ± 0.022 kcal/mol and 1.08 ± 0.03 kcal/mol.
Taken in the same sequence, the figures for “SAGGNSMTILFIFPENGWIIRITIKFPDGNGKIDDIDIEREPVPNGQVKYTIRMPDGMEISVEIIPLDSAGG [r13_515_TrROS]” were 3.99 ± 0.1 kcal/mol, 5.57 ± 0.15 kcal/mol and 5.52 ± 0.33 kcal/mol.
As for “SAGGNWIWRIKFPGRSIHFNWEQGNIEIWPPDGEEKTIPLPPGEPLEEFADEFAEKNGFDKVEIEPVPSAGG [r13_852_TrROS]”, the “folding stability dG unfold” value in series [1] worked out at 2.08 ± 0.11 kcal/mol; in series [2] it was 1.94 ± 0.24 kcal/mol; in series [3] it was 1.95 ± 0.21 kcal/mol.
The matching figures for “SAGGNWRIVEIPIKFPPGQDLTTIAKEIAKELLPPGEDVSINVEQRPNYMRIYIFYPEDGKPLWEIEISAGG [r13_724_TrROS]”: 1.95 ± 0.054 kcal/mol, 2.81 ± 0.048 kcal/mol and 2.58 ± 0.075 kcal/mol.
The matching figures for “SAGGNWTIEVEIEENPDGPYRITIRYRAPNGEEHKVTMWFDPDNGTFPIKLPGPLPPDQIEDIEIWPSAGGS [r16_95_TrROS]”: 3.41 ± 0.36 kcal/mol, 5.04 ± 0.24 kcal/mol and 4.91 ± 0.19 kcal/mol.
The matching figures for “SAGGPDIKIKWKIEVNPDNGMIWLTMEIEVPNPNGDFYKVRADIYIPIVNPDDGKFPIFIMLEVEPVPSAGG [r13_715_TrROS]”: 3.36 ± 0.3 kcal/mol, 4.74 ± 0.25 kcal/mol and 4.76 ± 0.2 kcal/mol.

The values above are taken from the supplement of paper PMC12764529.
